Test results: PMC11009412, “Pathogenic mutations of human phosphorylation sites affect protein–protein interactions” (Nature Communications, 2024)

Tested on: BirA*-FLAG-GATAD1 variants in Flp-In-293 cells
Test: BioID proximity labelling of full-length GATAD1 variants (SILAC)
Format: cell-based, human
Settings: GATAD1 WT vs S102P, significant proteins only; for Log2_Ratio.H.L.normalized.WT_S102P_forward: forward experiment (label swap performed, sign inverted against the H/L ratio); for Log2_Ratio.H.L.normalized.WT_S102P_forward / Log2_Ratio.H.L.normalized.WT_S102P_reverse: log2 of normalized H/L ratio; for Ratio.H.L.normalized.WT_S102P_forward: forward experiment; for Log2_Ratio.H.L.normalized.WT_S102P_reverse / Ratio.H.L.normalized.WT_S102P_reverse: reverse experiment
Description: The GATAD1 gene variants were ordered in a pTwist ENTR Kozak vector from Twist Bioscience. The genes were then transferred to a pDEST_pcDNA5_BirA_FLAG_Nterm vector[97] using the Gateway Clonase II system (Thermo Fisher Scientific). The resulting vectors, pEXPR_GATAD1-WT_N-term_BirA_FLAG, pEXPR_GATAD1-S102P_N-term_BirA_FLAG, pEXPR_GATAD1-S102D_N-term_BirA_FLAG, and pEXPR_GATAD1-S102A_N-term_BirA_FLAG, were used to generate tetracycline-inducible stable Flp-In^TM-293 T-REx cells. A 6-well plate was co-transfected with 0.5 µg of the pEXPR plasmid and 1 µg of the pOG44 Flp-recombinase expression vector (Thermo Fisher Scientific) using 4.5 µg of PEI (Polysciences) as a transfection reagent. The following day, the cells were trypsinized and transferred to a 10 cm dish containing DMEM supplemented with 10% FCS and 200 µg/ml hygromycin B (Invivogen) for selection. The cells were cultured for approximately 18 days with media exchange every 3 days until visible colonies were observed. After around 18 days, the colonies were trypsinized and transferred to another 10 cm dish for further characterization and experiments.
Stable Flp-In^TM-293 cell lines expressing GATAD1 variants were cultured using SILAC light (Lys0, Arg0) and SILAC heavy (Lys8, Arg10) media, as explained in the cell culture section. After full labeling, cells were split into 15 cm dishes and were treated with 1 μg/mL tetracycline for 24 h to induce the expression of GATAD1. After the induction period, cells were incubated with 50 μM biotin overnight for proximity biotinylation. As a control, wild-type GATAD1 cells, without biotin or tetracycline addition, were used. Samples were multiplexed, as shown in Supplementary Fig. 41A with both forward and reverse label swap (n = 2). Cells were then lysed in lysis buffer (50 mM Tris-HCl pH 7.5, 150 mM NaCl, 1% Triton X-100, 1 mM EDTA, 1 mM EGTA, 0.1% SDS) with freshly added protease inhibitors and 1% sodium deoxycholate. To digest the excess DNA, 1 μl of Benzonase was added, and the samples were incubated for 20 min at 37 °C. Biotinylated proteins were enriched for 3 h at 4 °C using streptavidin-sepharose beads (GE Cat# 17-5113-01). Beads were pre-washed twice with 0.01% BSA and twice with lysis buffer. After enrichment, the beads were washed one time with lysis buffer, two times with washing buffer (50 mM HEPES-KOH pH 8.0, 100 mM KCl, 10% glycerol, 2 mM EDTA, 0.1% NP-40), and six times with 50 mM ammonium bicarbonate. Beads were resuspended in ammonium bicarbonate, and an on-bead protein digest with 1 μg of trypsin followed overnight. The next day, the digested proteins were transferred to a fresh tube and were incubated with 10 mM DTT for 30 min at 37 °C and with 55 mM iodoacetamide for 20 min at 37 °C in the dark. Samples were desalted with StageTips.
Peptides were separated using reversed-phase liquid chromatography (EASY nLC II 1200, Thermo Fisher Scientific) with self-made C18 microcolumns (20 cm long) packed with ReproSil-Pur C18-AQ 1.9 μm resin (Dr. Maisch, cat# r119.aq.0001). The chromatography system was coupled online to the electrospray ion source (Proxeon) of an Orbitrap Exploris 480 mass spectrometer (Thermo Fisher Scientific). The mobile phase consisted of buffer A (0.1% formic acid and 5% acetonitrile) and buffer B (0.1% formic acid and 80% acetonitrile). Peptides were eluted using a gradient with increasing concentrations of buffer B over 110 minutes, at a flow rate of 250 nl/min. Mass spectrometry data was acquired in data-dependent mode with settings for one full scan (resolution: 60,000; m/z range: 350–1600; normalized AGC target: 300%; maximum injection time: 10 ms), followed by top 20 MS/MS scans using higher-energy collisional dissociation (resolution: 15,000; m/z range: 200–2000; normalized AGC target: 100%; maximum injection time: 120 ms; isolation width: 1.3 m/z; normalized collision energy: 28%).
Raw files were analyzed with MaxQuant, version 2.0.3.0. […]

Molecule	Log2_Ratio.H.L.normalized.WT_S102P_forward	Ratio.H.L.normalized.WT_S102P_forward	Log2_Ratio.H.L.normalized.WT_S102P_reverse	Ratio.H.L.normalized.WT_S102P_reverse
GSTP1 (protein, UniProt P09211 2-210, looked up) Glutathione S-transferase P: PPYTVVYFPVRGRCAALRMLLADQGQSWKEEVVTVETWQEGSLKASCLYGQLPKFQDGDLTLYQSNTILRHLGRTLGLYGKDQQEAALVDMVNDGVEDLRCKYISLIYTNYEAGKDDYVKALPGQLKPFETLLSQNQGGKTFIVGDQISFADYNLLDLLLIHEVLAPGCLDAFPLLSAYVGRLSARPKLKAFLASPEYVNLPINGNGKQ	-1.4183	2.6727	-1.579	0.3348
GTF2A1 (protein, UniProt P52655 2-376, looked up) Transcription initiation …: ANSANTNTVPKLYRSVIEDVINDVRDIFLDDGVDEQVLMELKTLWENKLMQSRAVDGFHSEEQQLLLQVQQQHQPQQQQHHHHHHHQQAQPQQTVPQQAQTQQVLIPASQQATAPQVIVPDSKLIQHMNASNMSAAATAATLALPAGVTPVQQILTNSGQLLQVVRAANGAQYIFQPQQSVVLQQQVIPQMQPGGVQAPVIQQVLAPLPGGISPQTGVIIQPQQILFTGNKTQVIPTTVAAPTPAQAQITATGQQQPQAQPAQTQAPLVLQVDGTGDTSSEEDEDEEEDYDDDEEEDKEKDGAEDGQVEEEPLNSEDDVSDEEGQELFDTENVVVCQYDKIHRSKNKWKFHLKDGIMNLNGRDYIFSKAIGDAEW	1.42	0.3738	1.224	2.3357
TOX4 (protein, UniProt O94842 1-621, looked up) TOX high mobility group box …: MEFPGGNDNYLTITGPSHPFLSGAETFHTPSLGDEEFEIPPISLDSDPSLAVSDVVGHFDDLADPSSSQDGSFSAQYGVQTLDMPVGMTHGLMEQGGGLLSGGLTMDLDHSIGTQYSANPPVTIDVPMTDMTSGLMGHSQLTTIDQSELSSQLGLSLGGGTILPPAQSPEDRLSTTPSPTSSLHEDGVEDFRRQLPSQKTVVVEAGKKQKAPKKRKKKDPNEPQKPVSAYALFFRDTQAAIKGQNPNATFGEVSKIVASMWDSLGEEQKQVYKRKTEAAKKEYLKALAAYKDNQECQATVETVELDPAPPSQTPSPPPMATVDPASPAPASIEPPALSPSIVVNSTLSSYVANQASSGAGGQPNITKLIITKQMLPSSITMSQGGMVTVIPATVVTSRGLQLGQTSTATIQPSQQAQIVTRSVLQAAAAAAAAASMQLPPPRLQPPPLQQMPQPPTQQQVTILQQPPPLQAMQQPPPQKVRINLQQQPPPLQIKSVPLPTLKMQTTLVPPTVESSPERPMNNSPEAHTVEAPSPETICEMITDVVPEVESPSQMDVELVSGSPVALSPQPRCVRSGCENPPIVSKDWDNEYCSNECVVKHCRDVFLAWVASRNSNTVVFVK	1.265	0.416	1.044	2.0619
GTF2E2 (protein, UniProt P29084 1-291, looked up) Transcription initiation …: MDPSLLRERELFKKRALSTPVVEKRSASSESSSSSSKKKKTKVEHGGSSGSKQNSDHSNGSFNLKALSGSSGYKFGVLAKIVNYMKTRHQRGDTHPLTLDEILDETQHLDIGLKQKQWLMTEALVNNPKIEVIDGKYAFKPKYNVRDKKALLRLLDQHDQRGLGGILLEDIEEALPNSQKAVKALGDQILFVNRPDKKKILFFNDKSCQFSVDEEFQKLWRSVTVDSMDEEKIEEYLKRQGISSMQESGPKKVAPIQRRKKPASQKKRRFKTHNEHLAGVLKDYSDITSSK	1.243	0.4226	1.178	2.2619
GTF2E1 (protein, UniProt P29083 2-439, looked up) General transcription factor …: ADPDVLTEVPAALKRLAKYVIRGFYGIEHALALDILIRNSCVKEEDMLELLKFDRKQLRSVLNNLKGDKFIKCRMRVETAADGKTTRHNYYFINYRTLVNVVKYKLDHMRRRIETDERDSTNRASFKCPVCSSTFTDLEANQLFDPMTGTFRCTFCHTEVEEDESAMPKKDARTLLARFNEQIEPIYALLRETEDVNLAYEILEPEPTEIPALKQSKDHAATTAGAASLAGGHHREAWATKGPSYEDLYTQNVVINMDDQEDLHRASLEGKSAKERPIWLRESTVQGAYGSEDMKEGGIDMDAFQEREEGHAGPDDNEEVMRALLIHEKKTSSAMAGSVGAAAPVTAANGSDSESETSESDDDSPPRPAAVAVHKREEDEEEDDEFEEVADDPIVMVAGRPFSYSEVSQRPELVAQMTPEEKEAYIAMGQRMFEDLFE	1.078	0.4738	1.217	2.3239
TXNL1 (protein, UniProt O43396 2-289, looked up) Thioredoxin-like protein 1: VGVKPVGSDPDFQPELSGAGSRLAVVKFTMRGCGPCLRIAPAFSSMSNKYPQAVFLEVDVHQCQGTAATNNISATPTFLFFRNKVRIDQYQGADAVGLEEKIKQHLENDPGSNEDTDIPKGYMDLMPFINKAGCECLNESDEHGFDNCLRKDTTFLESDCDEQLLITVAFNQPVKLYSMKFQGPDNGQGPKYVKIFINLPRSMDFEEAERSEPTQALELTEDDIKEDGIVPLRYVKFQNVNSVTIFVQSNQGEEETTRISYFTFIGTPVQATNMNDFKRVVGKKGESH	1.514	0.3502	1.19	2.2812
TMPO (protein, UniProt P42166 2-694, looked up) Lamina-associated polypeptide …: PEFLEDPSVLTKDKLKSELVANNVTLPAGEQRKDVYVQLYLQHLTARNRPPLPAGTNSKGPPDFSSDEEREPTPVLGSGAAAAGRSRAAVGRKATKKTDKPRQEDKDDLDVTELTNEDLLDQLVKYGVNPGPIVGTTRKLYEKKLLKLREQGTESRSSTPLPTISSSAENTRQNGSNDSDRYSDNEEGKKKEHKKVKSTRDIVPFSELGTTPSGGGFFQGISFPEISTRPPLGSTELQAAKKVHTSKGDLPREPLVATNLPGRGQLQKLASERNLFISCKSSHDRCLEKSSSSSSQPEHSAMLVSTAASPSLIKETTTGYYKDIVENICGREKSGIQPLCPERSHISDQSPLSSKRKALEESESSQLISPPLAQAIRDYVNSLLVQGGVGSLPGTSNSMPPLDVENIQKRIDQSKFQETEFLSPPRKVPRLSEKSVEERDSGSFVAFQNIPGSELMSSFAKTVVSHSLTTLGLEVAKQSQHDKIDASELSFPFHESILKVIEEEWQQVDRQLPSLACKYPVSSREATQILSVPKVDDEILGFISEATPLGGIQAASTESCNQQLDLALCRAYEAAASALQIATHTAFVAKAMQADISQAAQILSSDPSRTHQALGILSKTYDAASYICEAAFDEVKMAAHTMGNATVGRRYLWLKDCKINLASKNKLASTPFKGGTLFGGEVCKVIKKRGNKH	1.365	0.3882	1.174	2.2568
